Measurements published in the supplement of paper PMC10567573.

B1: C1orf137 (parent)
chain: RQHHHQSSFPGSLPQETNLTLKVC
B2: SEC22B (parent)
chain: AKQLFRKLNEQSPTRCTLEAGAMT
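Note: lentivirally expressed fusions sorted by FACS into six bins by GFP to DsRed ratio, PSI derived from sequencing read proportions per bin multiplied by bin number.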

Variants of: B1
Assay: protein stability index of a GFP-peptide fusion (GPS, HEK-293T) (PSI 1-6); higher = more stable
Conditions: c terminus: a fixed tail appended
RQHHHQLSFPGSLPQETNLTLKVC gave a protein stability index of 2.79. With RQHHHQQSFPGSLPQETNLTLKVC the protein stability index was 3.05. With RQHHHQVSFPGSLPQETNLTLKVC the protein stability index was 2.89. Variant RQHHHQRSFPGSLPQETNLTLKVC has a protein stability index of 3.34. Variant RQHHHQYSFPGSLPQETNLTLKVC has a protein stability index of 2.54. With RQHHHQDSFPGSLPQETNLTLKVC the protein stability index was 3.23. RQHHHQMSFPGSLPQETNLTLKVC gave a protein stability index of 2.43. In the case of RQHHHQSSFPGSLPQETNLTLKVA, the protein stability index is reported as 3.64. Work on RQIHHQSSFPGSLPQETNLTLKVC yielded a protein stability index of 3.06. RQEHHQSSFPGSLPQETNLTLKVC showed a protein stability index of 3.69. REHHHQSSFPGSLPQETNLTLKVC gave a protein stability index of 2.59. With RWHHHQSSFPGSLPQETNLTLKVC the protein stability index was 2.58. Variant RSHHHQSSFPGSLPQETNLTLKVC has a protein stability index of 2.43. For RTHHHQSSFPGSLPQETNLTLKVC, the protein stability index was 3.45. In the case of RDHHHQSSFPGSLPQETNLTLKVC, the protein stability index is reported as 3.06. RLHHHQSSFPGSLPQETNLTLKVC showed a protein stability index of 2.4. RPHHHQSSFPGSLPQETNLTLKVC gave a protein stability index of 2.77. RQHHHQSSFPGALPQETNLTLKVC gave a protein stability index of 3.19. RQHHHQSVFPGSLPQETNLTLKVC showed a protein stability index of 2.78. RQHHHQSSFPGSLPQEVNLTLKVC gave a protein stability index of 2.17. In the case of RQHHHQSSFPGSLPQEANLTLKVC, the protein stability index is reported as 2.87. RQHHHQSSFPGSLPLETNLTLKVC gave a protein stability index of 2.19. Work on RQHHHQSSFPGSLPAETNLTLKVC yielded a protein stability index of 2.03. RQHHHQSSFPGSLPCETNLTLKVC gave a protein stability index of 2.56. RQHHHQSSFPGSLPVETNLTLKVC showed a protein stability index of 2.6. Variant RQHWHQSSFPGSLPQETNLTLKVC has a protein stability index of 2.87. Variant RQHHHQSSFPGSLPQETNLTLKCC has a protein stability index of 3.41. With RQHHHQSSFPGSLPQETNLTLKTC the protein stability index was 3.76. RQHHHQSSFPGSLPQETNLTLKAC showed a protein stability index of 3.78. Variant RQHHHQSSFPGSLPQETNLTLKFC has a protein stability index of 2.5. Variant RQHHHQSSFKGSLPQETNLTLKVC has a protein stability index of 3.44. Work on RQHHHQSSFEGSLPQETNLTLKVC yielded a protein stability index of 2.6. Variant RQHHHQSSFRGSLPQETNLTLKVC has a protein stability index of 3.75. RQHHHQSSFIGSLPQETNLTLKVC showed a protein stability index of 2.56. Work on RQHHHQSSFMGSLPQETNLTLKVC yielded a protein stability index of 2.19. Work on RQHHHQSSFPGSLKQETNLTLKVC yielded a protein stability index of 3.13. With RQHHHQSSFPGSLDQETNLTLKVC the protein stability index was 3.55. In the case of CQHHHQSSFPGSLPQETNLTLKVC, the protein stability index is reported as 1.97. Work on DQHHHQSSFPGSLPQETNLTLKVC yielded a protein stability index of 3.79. RQHHHQSSFPGSLPQETQLTLKVC showed a protein stability index of 3.66. Work on RQHHHQSSFPGSLPQETNLTDKVC yielded a protein stability index of 4.43. RQHHHQSSFPGSLPQETNLTMKVC showed a protein stability index of 3.79. RQHHHQSSFPGSLPQETNLTQKVC showed a protein stability index of 3.95. Variant RQHHHQSSFPGSLPQETNLTGKVC has a protein stability index of 4.36. RQHHSQSSFPGSLPQETNLTLKVC showed a protein stability index of 2.51. For RQHHFQSSFPGSLPQETNLTLKVC, the protein stability index was 2.33. In the case of RQHHTQSSFPGSLPQETNLTLKVC, the protein stability index is reported as 3.28. Work on RQHHHWSSFPGSLPQETNLTLKVC yielded a protein stability index of 2.27. RQHHHQSSFPVSLPQETNLTLKVC gave a protein stability index of 2.98. RQHHHQSSFPASLPQETNLTLKVC gave a protein stability index of 2.21. RQHHHQSSFPWSLPQETNLTLKVC gave a protein stability index of 2.24. RQHHHQSSFPGSLPQETNQTLKVC gave a protein stability index of 3.52. For RQHHHQSSPPGSLPQETNLTLKVC, the protein stability index was 3.38. In the case of RQHHHQSSDPGSLPQETNLTLKVC, the protein stability index is reported as 4.08. RQHHHQSSTPGSLPQETNLTLKVC showed a protein stability index of 3.42. With RQHHHQSSFPGSNPQETNLTLKVC the protein stability index was 3.71. With RQHHHQSSFPGSQPQETNLTLKVC the protein stability index was 2.89. Variant RQHHHQSSFPGSGPQETNLTLKVC has a protein stability index of 2.98. With RQHHHQSSFPGSWPQETNLTLKVC the protein stability index was 3.13. RQHHHQSSFPGSLPQETNLTLPVC gave a protein stability index of 3.53. RQHHHQSSFPGSLPQETNLKLKVC gave a protein stability index of 2.64. With RQHHHQSSFPGSLPQETNLQLKVC the protein stability index was 3.83. For RQHHHQSSFPGSLPQETNLRLKVC, the protein stability index was 3.36. For RQHHHQSSFPGSLPQETNLPLKVC, the protein stability index was 3.62. RQHHHQSSFPGSLPQETNLYLKVC gave a protein stability index of 1.75.

Variants of: B2
Assay: as above
Conditions: c terminus: a fixed tail appended
With AKQLYRKLNEQSPTRCTLEAGAMT the protein stability index was 2.28. Variant AKQLNRKLNEQSPTRCTLEAGAMT has a protein stability index of 3.07. In the case of AKQLHRKLNEQSPTRCTLEAGAMT, the protein stability index is reported as 2.89. Variant AKQLTRKLNEQSPTRCTLEAGAMT has a protein stability index of 2.75. Work on AKQLARKLNEQSPTRCTLEAGAMT yielded a protein stability index of 3.67. Variant AKQLGRKLNEQSPTRCTLEAGAMT has a protein stability index of 3.62. AKQLERKLNEQSPTRCTLEAGAMT gave a protein stability index of 2.97. With AKQLVRKLNEQSPTRCTLEAGAMT the protein stability index was 2.95. With AKQLMRKLNEQSPTRCTLEAGAMT the protein stability index was 2.62. Work on AKQLPRKLNEQSPTRCTLEAGAMT yielded a protein stability index of 3.46. In the case of AKQLKRKLNEQSPTRCTLEAGAMT, the protein stability index is reported as 3.47. For AKQLLRKLNEQSPTRCTLEAGAMT, the protein stability index was 2.48. Variant AKQLRRKLNEQSPTRCTLEAGAMT has a protein stability index of 3.22. For AKQLIRKLNEQSPTRCTLEAGAMT, the protein stability index was 2.3. With AKQLQRKLNEQSPTRCTLEAGAMT the protein stability index was 3.23. With AKQLWRKLNEQSPTRCTLEAGAMT the protein stability index was 1.94. Work on AKQLSRKLNEQSPTRCTLEAGAMT yielded a protein stability index of 3.44. With AKQLDRKLNEQSPTRCTLEAGAMT the protein stability index was 3.37. Work on AKQLCRKLNEQSPTRCTLEAGAMT yielded a protein stability index of 2.55. With AKRLFRKLNEQSPTRCTLEAGAMT the protein stability index was 1.93. With AKHLFRKLNEQSPTRCTLEAGAMT the protein stability index was 1.93. For AKPLFRKLNEQSPTRCTLEAGAMT, the protein stability index was 2.5. Work on AKGLFRKLNEQSPTRCTLEAGAMT yielded a protein stability index of 2.39. With AKNLFRKLNEQSPTRCTLEAGAMT the protein stability index was 3.08. Variant AKELFRKLNEQSPTRCTLEAGAMT has a protein stability index of 2.51. With AKFLFRKLNEQSPTRCTLEAGAMT the protein stability index was 2.18. Work on AKLLFRKLNEQSPTRCTLEAGAMT yielded a protein stability index of 2.08. AKCLFRKLNEQSPTRCTLEAGAMT gave a protein stability index of 2.39. Work on AKDLFRKLNEQSPTRCTLEAGAMT yielded a protein stability index of 2.3.
